Assay results published in US20210355235A1, “Compositions and Methods For Treating Cancer with Anti-Renalase antibodies and Anti-PD1 antibodies” (YALE UNIVERSITY, priority 2017, published 2021).

System: Panc1 cells
Assay: FACS analysis of apoptosis and cell cycle
Assay type: cell-based, human
Conditions: 30 μg/ml
Experimental: For cell cycle analysis, cultured cells were dissociated using 10 mM EDTA, fixed with ice-cold 70% ethanol, digested with RNAse A, and stained with propidium iodide. Propidium staining was detected using a BD FACSCalibur flow cytometer (BD Biosciences, San Jose, Calif., USA), and analyzed using CellQuest software.
Apoptosis was detected and quantified as previously done (Guo et al., 2012 Cancer Science. 103(8):1474-80). In brief, cells were stained with FITC-labeled Annexin-V and propidium iodide according to the manufacturer's instructions (Bender MedSystems, Burlingame, Calif., USA). At least 20,000 events were collected on a BD FACSCalibur flow cytometer (BD Biosciences, San Jose, Calif., USA) and analyzed using CellQuest software.

B1: m28-RNLS: rabbit anti-renalase monoclonal raised against RNLS peptide RP-220; heavy chain SEQ ID NO:9, light chain SEQ ID NO:10 (antibody)
heavy: METGLRWLLLVAVLKGVQCQSVEESGGRLVTPGTPLTLTCTVSGFSLSSFAVGWVRQAPGKGLEYIGIISSVGITRYASWAAGRFTISKTSTTVDLKITSPTTEDTATYFCARYGYSGDVNRLDLWGQGTLVTVSSGQPKAPSVFPLAPCCGDTPSSTVTLGCLVKGYLPEPVTVTWNSGTLTNGVRTFPSVRQSSGLYSLSSVVSVTSSSQPVTCNVAHPATNTKVDKTVAPSTCSKPTCPPPELLGGPSVFIFPPKPKDTLMISRTPEVTCVVVDVSQDDPEVQFTWYINNEQVRTARPPLREQQFNSTIRVVSTLPIAHQDWLRGKEFKCKVHNKALPAPIEKTISKARGQPLEPKVYTMGPPREELSSRSVSLTCMINGFYPSDISVEWEKNGKAEDNYKTTPAVLDSDGSYFLYSKLSVPTSEWQRGDVFTCSVMHEALHNHYTQKSISRSPGK
light: MDTRAPTQLLGLLLLWLPGATFAQVLTQTASPVSAAVGGTVTINCQASQSVYDNNNLAWYQQKPGQPPKQLIYGASTLASGVSSRFKGSGSGTQFTLTISGVQCDDAATYYCLGEFSCSSADCFAFGGGTEVVVKGDPVAPTVLIFPPSADLVATGTVTIVCVANKYFPDVTVTWEVDGTTQTTGIENSKTPQNSADCTYNLSSTLTLTSTQYNSHKEYTCKVTQGTTSVVQSFNRGDC
modifications: 1D-28-4 full length heavy chain amino acid; 1D-28-4 full length light chain amino acid
  cell cycle (FACS): pre-G2 cell cycle arrest
4 days
  apoptosis (FACS): caused apoptosis
